Experimental data: publication PMC3763555 (Nucleic Acids Research, 2013)
Positions count from the first letter of the chain named. Numbers in names are those of the source. Values belong to the binder of their own block, whether it stands above or below them.

Assays:
drRecO;drRecR K23E/R27E = target: T1, drRecO;drRecR K23E/R27E (Deinococcus radiodurans;Deinococcus …, UniProt Q9RW50;Q9ZNA2 1-244;1-220, |K23E;R27E); assay: fluorescence anisotropy
T1 sequence 1: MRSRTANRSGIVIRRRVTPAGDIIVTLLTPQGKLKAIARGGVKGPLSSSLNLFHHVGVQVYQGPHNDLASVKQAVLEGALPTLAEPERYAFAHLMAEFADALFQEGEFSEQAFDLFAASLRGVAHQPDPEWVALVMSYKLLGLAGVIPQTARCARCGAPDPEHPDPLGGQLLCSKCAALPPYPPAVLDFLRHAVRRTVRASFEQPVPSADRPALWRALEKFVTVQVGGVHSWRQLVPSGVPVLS
T1 sequence 2: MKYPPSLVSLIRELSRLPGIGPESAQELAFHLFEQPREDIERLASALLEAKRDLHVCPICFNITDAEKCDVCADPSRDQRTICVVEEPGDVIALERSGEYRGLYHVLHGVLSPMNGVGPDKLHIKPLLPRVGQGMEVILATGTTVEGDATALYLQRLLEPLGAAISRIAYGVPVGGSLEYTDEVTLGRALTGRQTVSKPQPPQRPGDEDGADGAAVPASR

drRecO Q59E;drRecR = target: T2, drRecO Q59E;drRecR (Deinococcus radiodurans;Deinococcus …, UniProt Q9RW50;Q9ZNA2 1-244;1-220, Q59E|); assay: fluorescence anisotropy
T2 sequence 1: T1 sequence 1 with Q59E
T2 sequence 2: T1 sequence 2 with E23K, E27R

drRecO = target: T3, drRecO (Deinococcus radiodurans, UniProt Q9RW50 1-244); assay: fluorescence anisotropy
T3 sequence: T1 sequence 1

drRecO K43E/K72E;drRecR = target: T4, drRecO K43E/K72E;drRecR (Deinococcus radiodurans;Deinococcus …, UniProt Q9RW50;Q9ZNA2 1-244;1-220, K43E;K72E|); assay: fluorescence anisotropy
T4 sequence 1: T1 sequence 1 with K43E, K72E
T4 sequence 2: T1 sequence 2 with E23K, E27R

drRecO K72E/Q73E;drRecR = target: T5, drRecO K72E/Q73E;drRecR (Deinococcus radiodurans;Deinococcus …, UniProt Q9RW50;Q9ZNA2 1-244;1-220, K72E;Q73E|); assay: fluorescence anisotropy
T5 sequence 1: T1 sequence 1 with K72E, Q73E
T5 sequence 2: T1 sequence 2 with E23K, E27R

drRecR = target: T6, drRecR (Deinococcus radiodurans, UniProt Q9ZNA2 1-220); assay: fluorescence anisotropy
T6 sequence: T1 sequence 2 with E23K, E27R

[1] = target: T7, Deinococcus radiodurans RecO, N-terminal hexa-histidine tag (Deinococcus radiodurans, UniProt Q9RW50 1-244); assay: crystal structure
T7 sequence (looked up): T1 sequence 1

crystal structure = target: the molecule itself; assay: crystal structure
SAXS = target: the molecule itself; assay: SAXS
[2] = target: T8, Deinococcus radiodurans RecO, C-terminal hexa-histidine tag (Deinococcus radiodurans, UniProt Q9RW50 1-244); assay: SAXS
T8 sequence (looked up): T1 sequence 1

Binder: TTTTTTTTTTTTTTTTTTTTTTTTTTTTTTTTTTTTTTTTTTTTTTTTTT (ssDNA) [50mer poly(dT) ssDNA]
binding result (drRecO;drRecR K23E/R27E): no binding | binding result (drRecO Q59E;drRecR): no binding | Kd (drRecO): 8.7 µM | binding result (drRecO K43E/K72E;drRecR): binds | binding result (drRecO K72E/Q73E;drRecR): binds | binding result (drRecR): no binding

B1: 50mer dsDNA (dsDNA)
DNA 1: GACTACGTACTGTTACGGCTCCATCTCTACCGCAATCAGGCCAGATCTGC
DNA 2: GCAGATCTGGCCTGATTGCGGTAGAGATGGAGCCGTAACAGTACGTAGTC
binding result (drRecO;drRecR K23E/R27E): no binding | binding result (drRecO Q59E;drRecR): no binding | binding result (drRecR): no binding

binding result [1]: binds
B2: Deinococcus radiodurans RecR K23A/R27A double mutant (natural protein, UniProt Q9ZNA2 1-220, looked up)
chain: T1 sequence 2 with E23A, E27A
stoichiometry N (crystal structure): 4

B3: Deinococcus radiodurans RecR, full length, without tag (natural protein, UniProt Q9ZNA2 1-220, looked up)
chain: T1 sequence 2 with E23K, E27R
stoichiometry N (SAXS): 2

binding result [2]: binds
B4: Deinococcus radiodurans RecR, full length, C-terminal hexa-histidine tag (natural protein, UniProt Q9ZNA2 1-220, looked up)
chain: T1 sequence 2 with E23K, E27R
